Here are results for 1 molecule from paper PMC10247727, “Stabilization of pre-existing neurotensin receptor conformational states by β-arrestin-1 and the biased allosteric modulator ML314” (Nature Communications, 2023).

The experiment deals with T1, enNTS1ΔM4 (minimal methionine variant of the thermostabilized rat neurotensin receptor 1 variant enNTS1) (rat, N262^5.63R (stands in the printed letters) | K263^5.64R (stands in the printed …)).
T1 construct: residues left before the receptor after HRV 3C cleavage (so in the source); enNTS1ΔM4: rat neurotensin receptor 1 thermostabilized by directed evolution (enNTS1), four of the ten methionines removed; linker, C-terminal Avi-tag and the rest of the HRV 3C site, as printed (the Avi-tag is named under tags too); In DDM micelles; 13CεH3-methionine labelled or unlabelled; also called …
T1 chain: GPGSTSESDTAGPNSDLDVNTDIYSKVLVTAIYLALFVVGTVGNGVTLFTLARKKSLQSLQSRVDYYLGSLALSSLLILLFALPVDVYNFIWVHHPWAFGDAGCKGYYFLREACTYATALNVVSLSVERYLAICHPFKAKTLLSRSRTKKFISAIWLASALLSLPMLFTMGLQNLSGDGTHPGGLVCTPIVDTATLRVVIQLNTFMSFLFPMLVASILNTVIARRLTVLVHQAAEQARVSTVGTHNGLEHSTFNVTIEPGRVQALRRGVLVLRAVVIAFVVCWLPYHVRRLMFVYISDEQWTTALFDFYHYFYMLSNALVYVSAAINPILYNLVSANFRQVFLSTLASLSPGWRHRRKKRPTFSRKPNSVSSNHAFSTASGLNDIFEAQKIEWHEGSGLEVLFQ
Kind of experiment: NMR (1H-13C HMQC spectra); 66 μM [13CεH3-methionine]-enNTS1ΔM4 with 500 μM ML314 (no NT8-13), 130 μM PIP2 and 2.3x molar equivalents βArr1-3A, 298 K. The following applies: both partners purified.

B1: βArr1-3A (pre-activated cysteine-free human β-arrestin-1, I386A/V387A/F388A), tags removed (natural protein)
chain: GPSGDKGTRVFKKASPNGKLTVYLGKRDFVDHIDLVDPVDGVVLVDPEYLKERRVYVTLTVAFRYGREDLDVLGLTFRKDLFVANVQSFPPAPEDKKPLTRLQERLIKKLGEHAYPFTFEIPPNLPSSVTLQPGPEDTGKALGVDYEVKAFVAENLEEKIHKRNSVRLVIRKVQYAPERPGPQPTAETTRQFLMSDKPLHLEASLDKEIYYHGEPISVNVHVTNNTNKTVKKIKISVRQYADIVLFNTAQYKVPVAMEEADDTVAPSSTFSKVYTLTPFLANNREKRGLALDGKLKHEDTNLASSTLLREGANREILGIIVSYKVKVKLVVSRGGLLGDLASSDVAVELPFTLMHPKPKEEPPHREVPENETPVDTNLIELDTNDDDAAAEDFARQRLKGMKDDKEEEEDGTGSPQLNNR
notes: residues left after HRV 3C cleavage (so in the source); human β-arrestin-1, cysteine-free, 3A mutant; Used in the NMR experiments, unlabelled or [U-15N,13C,2H]-labelled; also called hβArr1-3A; βArr-3A; source: E. coli BL21(DE3), purified (Ni-NTA, HRV 3C cleavage, HiTrap Q, SEC); not shown: His6, N-terminal, cleaved; Protein C tag, N-terminal, cleaved
Consider B1, for which the binding result is “binds”.
